First the molecules themselves.
B1: LINE1-full (parent)
chain: UACGUAGGUGGUUUUCCCCUGAUAGUGCUAAGGGGGCCUGGAAGUUUGGACUGGGCAGAGCUCAACACAGCGUGGCAAAGUGGCUGUGGCUAGACUGCCUCUCUGGAUUCCUCGUCACUCAGCAGGGCAUCUCUGAGAGAAAUGCC

The variants in the data set derive from B1. Description: self-cleavage, relative activity (ratio to wild type); higher = more cleavage; in vitro, sequencing; the parent is a self-cleaving ribozyme.
A64U U100A: the self-cleavage is 0.23.
As for A64U U100C, the figure is 0.77; as for A65U A78U, 0.2; as for A65U A78G, 0.16.
The result for C66A A124U reads 0.04; that for A64C A141U, 0.3.
As for A64C A141G, the figure is 0.48.
Consider A67G A124G, for which the self-cleavage was 0.26.
As for A67C U104G, the figure is 0.14; as for A64G A138U, 0.27.
For the variant C66U A92G, the self-cleavage is 0.02.
Turning to A64G U81C, the self-cleavage is 0.3.
On to A64U U87C, for which the self-cleavage came out at 0.12.
The result for A64G U100A reads 0.23; that for A64G U100C, 0.29; that for A64C U81G, 0.3.
The result for A64C U81A reads 0.44.
The result for A65G A142G reads 0.06; that for A67C U134C, 0.09.
Take A67C U134A: the self-cleavage stood at 0.02.
For the variant A65U U119C, the self-cleavage is 0.19.
The result for A65U U119G reads 0.45.
As for A67G G83C, the figure is 0.13; as for A64U A121U, 0.53; as for A64U A121G, 0.49.
As for A65U G127U, the figure is 0.28; as for A67G A77G, 0.91.
For the variant A67U U85A, the self-cleavage came out at 0.05.
As for A67G A79G, the figure is 0.5.
As for A64U U104A, the figure is 0.29; as for C66U A77G, 0.07; as for A64C A138G, 0.31.
The result for A67G G72A reads 0.21; that for A67G C110U, 0.46; that for C66U A107G, 0.03.
On to A67U U132C, for which the self-cleavage was 0.16.
The result for A67U U132A reads 0.11; that for A64G U85C, 0.1; that for A64G U85A, 0.07.
As for A64C U132C, the figure is 0.34; as for A64U G114A, 0.41; as for A65G G75A, 0.03.
As for A64G G105A, the figure is 0.03.
As for A64G A79G, the self-cleavage is 0.24.
As for C66U U85G, the figure is 0.03; as for A64U U143C, 0.42.
As for A64G A67G, the figure is 0.09.
As for A64G A67U, the figure is 0.11; as for A64G C146U, 0.24; as for A67U U73A, 0.05.
As for A64C U112C, the self-cleavage was determined as 0.29.
As for A65G A138U, the self-cleavage is 0.08.
As for A67U G83A, the figure is 0.03.
Regarding A67C U109C, the self-cleavage was 0.06.
The result for A67C A69G reads 0.
The result for A65G U85G reads 0.07; that for A65C A140G, 0.05; that for A67U A92U, 0.05.
As for A67U A92G, the self-cleavage was determined as 0.04.
For A67U U134C, the self-cleavage is 0.16.
Regarding A64C C95A, the self-cleavage is 0.01.
Consider A67U C101A, for which the self-cleavage worked out at 0.09.
The result for A64G A92G reads 0.14; that for A67U U130C, 0.15.
As for A67G G144A, the figure is 0.69; as for A67G U132A, 0.64.
Consider A64G G106U, for which the self-cleavage turned out to be 0.15.
Regarding A67G U73C, the self-cleavage is 0.66.
For A67G U73A, the self-cleavage was 0.24.
As for A67U U112C, the figure is 0.09; as for A65U A69U, 0.03.
As for A64G U143C, the self-cleavage stood at 0.26.
As to A64U G93U, the self-cleavage worked out at 0.05.
Turning to A65C G80A, the self-cleavage was 0.02.
The result for A67U G106A reads 0.15; that for A64G U96C, 0.15; that for A64C C101U, 0.28.
The result for A64G A69C reads 0; that for A64G A69U, 0.08; that for A64G A69G, 0.07.
As for A64U G144A, the figure is 0.42.
Regarding A65U A121G, the self-cleavage stood at 0.21.
The result for A64U A79G reads 0.4; that for A65G U91A, 0.02.
The result for A67G C68U reads 0.04; that for A67U A129G, 0.08.
The result for A64C U108C reads 0.39; that for A67U A121U, 0.12.
As to A67C A77G, the self-cleavage was 0.22.
The result for A67U U108C reads 0.29.
The result for A65G U73A reads 0.04; that for A65G U73C, 0.06.
As for A65G G139A, the figure is 0.06; as for A65U U112C, 0.26; as for A67G U109A, 0.43.
Turning to A67U A107U, the self-cleavage turned out to be 0.04.
As for A65U U104A, the figure is 0.14.
As for A67U G72A, the figure is 0.13.
The result for A67G C103U reads 0.25.
Regarding A64G U104C, the self-cleavage is 0.59.
The result for A67U C131U reads 0.08; that for A65G U81C, 0.09; that for A67C U130C, 0.04.
As for A65C A136G, the figure is 0; as for A67U A117G, 0.19; as for A64G C99U, 0.18.
The result for C66U U119C reads 0.04.
For A65G U143A, the self-cleavage worked out at 0.06.
The result for A65G U143C reads 0.08.
Consider A64G G97C, for which the self-cleavage turned out to be 0.11.
As for A64G G97A, the figure is 0.07.
As for A67C A124G, the figure is 0.06; as for A64G A136G, 0.22.
As for A64G A136U, the figure is 0.28.
For the variant A65U A136G, the self-cleavage amounted to 0.2.
The result for A65G G88A reads 0.02; that for A65G C101U, 0.04; that for A64U U115C, 0.63.
As for A64G A121G, the figure is 0.28; as for A67G U104A, 0.36.
Take A65G U130C: the self-cleavage is 0.1.
As to A67G G106U, the self-cleavage was determined as 0.33.
The result for A64U A117U reads 0.49.
As for A64G G144A, the figure is 0.21; as for A64G U119A, 0.32; as for A64G U109C, 0.2.
For A64G U109A, the self-cleavage was 0.14.
The result for A65G A121G reads 0.08; that for A64G C98U, 0.11.
As for A67U C90G, the figure is 0.04; as for A67G C95A, 0.07; as for A64G C76U, 0.13.
As for C68A, the figure is 0.04.
Turning to A64G U102A, the self-cleavage was 0.15.
The result for A65G U100G reads 0; that for A64G A107G, 0.33.
The result for A67C A92G reads 0.05; that for A67G C98U, 0.06.
The result for A67G C99A reads 0.17.
A65G A141G: the self-cleavage was found to be 0.07.
For the variant A64U A77G, the self-cleavage is 0.75.
The result for A64U A77U reads 0.48; that for A65G C103U, 0.06; that for A67U U91A, 0.08.
As for A67U U91C, the figure is 0.05; as for A64G A78U, 0.23.
As for A64G U112A, the figure is 0.16; as for A67G A69C, 0.37.
Consider A67G A69U, for which the self-cleavage amounted to 0.06.
The result for A64U U96C reads 0.04.
As for A67C A117G, the figure is 0.
As for A65G A67U, the figure is 0.03; as for A65G A67C, 0.14.
Turning to A65G A67G, the self-cleavage was 0.09.
Regarding A65G U96A, the self-cleavage is 0.07.
As for A65G, the self-cleavage stood at 0.06.
Take A65C: the self-cleavage stood at 0.04.
The result for A65U reads 0.17; that for A65U U109C, 0.18; that for A67G C118A, 0.58.
The result for A65U U96A reads 0; that for A67U A94G, 0.02; that for A64U G137A, 0.24.
The result for A64G C113A reads 0.17.
A64G C113U: the self-cleavage turned out to be 0.13.
As for A65G G144A, the figure is 0.1; as for A65G A136G, 0.07.

The values above are taken from the RNAGym collection of RNA variant scans (doi:10.7554/elife.90254).
